In PMC4288179, “Synergic interplay of the La motif, RRM1 and the interdomain linker of LARP6 in the recognition of collagen mRNA expands the RNA binding repertoire of the La module”:

T1: HsLARP6 La module (70-300) (Homo sapiens, UniProt Q9BRS8 70-300)
T1 sequence: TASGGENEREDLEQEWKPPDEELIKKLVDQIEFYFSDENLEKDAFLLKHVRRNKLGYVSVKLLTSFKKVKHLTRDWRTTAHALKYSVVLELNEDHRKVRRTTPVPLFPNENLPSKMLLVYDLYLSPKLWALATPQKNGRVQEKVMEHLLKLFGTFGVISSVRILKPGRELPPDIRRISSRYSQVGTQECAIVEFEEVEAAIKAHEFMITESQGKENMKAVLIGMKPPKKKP


Molecular target: T1, HsLARP6 La module (70-300)
Assay: ITC; ITC: 20 mM Tris pH 7.25, 100 mM KCl, 5 mM MgCl2, 1 mM DTT, 298 K; protein titrated into RNA
Settings: protein: recombinant, tags: N-terminal His6, TEV-cleaved for initial ITC

Binder	Kd (stem-loop with internal bulge)	Kd (single strand)
CAAAGAGUCUACAUGGGUCAUGUUCAGCUUUG (structured_RNA) [32 nt RNA]	0.125 µM	–
UUUU (ssRNA) [UUUUOH RNA]	–	6 µM
